Results reported in PMC12416549 (2024).

Molecular target: T1, TNFR1 (Homo sapiens, UniProt P19438)
T1 chain: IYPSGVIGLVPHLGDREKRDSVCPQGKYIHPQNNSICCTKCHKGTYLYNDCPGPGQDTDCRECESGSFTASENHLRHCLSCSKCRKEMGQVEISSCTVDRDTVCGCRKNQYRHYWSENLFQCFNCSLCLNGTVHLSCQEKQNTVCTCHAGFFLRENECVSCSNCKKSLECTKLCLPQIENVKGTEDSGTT
Experiment: yeast display SC50

Binder	apparent Kd (screen) [nM]
L27I (designed binder) MTLQELLREEALRRAEAEAFRYALELIAEKFPEQKEYLLDLAEEIESQIRSLSGVDVEDVRKFLDKEWAWVKELLAEHPAELAEVEAARAARLAELRAEVEAKVAA	1.27
R21M (designed binder) MTLQELLREEALRRAEAEAFMYALELLAEKFPEQKEYLLDLAEEIESQIRSLSGVDVEDVRKFLDKEWAWVKELLAEHPAELAEVEAARAARLAELRAEVEAKVAA	0.956
A87W (designed binder) MTLQELLREEALRRAEAEAFRYALELLAEKFPEQKEYLLDLAEEIESQIRSLSGVDVEDVRKFLDKEWAWVKELLAEHPAELAEVEWARAARLAELRAEVEAKVAA	0.653
V100H (designed binder) MTLQELLREEALRRAEAEAFRYALELLAEKFPEQKEYLLDLAEEIESQIRSLSGVDVEDVRKFLDKEWAWVKELLAEHPAELAEVEAARAARLAELRAEHEAKVAA	0.869
D65E (designed binder) MTLQELLREEALRRAEAEAFRYALELLAEKFPEQKEYLLDLAEEIESQIRSLSGVDVEDVRKFLEKEWAWVKELLAEHPAELAEVEAARAARLAELRAEVEAKVAA	0.446
L24E (designed binder) MTLQELLREEALRRAEAEAFRYAEELLAEKFPEQKEYLLDLAEEIESQIRSLSGVDVEDVRKFLDKEWAWVKELLAEHPAELAEVEAARAARLAELRAEVEAKVAA	0.869
E18W (designed binder) MTLQELLREEALRRAEAWAFRYALELLAEKFPEQKEYLLDLAEEIESQIRSLSGVDVEDVRKFLDKEWAWVKELLAEHPAELAEVEAARAARLAELRAEVEAKVAA	0.446
E81R (designed binder) MTLQELLREEALRRAEAEAFRYALELLAEKFPEQKEYLLDLAEEIESQIRSLSGVDVEDVRKFLDKEWAWVKELLAEHPARLAEVEAARAARLAELRAEVEAKVAA	0.539
V100W (designed binder) MTLQELLREEALRRAEAEAFRYALELLAEKFPEQKEYLLDLAEEIESQIRSLSGVDVEDVRKFLDKEWAWVKELLAEHPAELAEVEAARAARLAELRAEWEAKVAA	0.539
L3E (designed binder) MTEQELLREEALRRAEAEAFRYALELLAEKFPEQKEYLLDLAEEIESQIRSLSGVDVEDVRKFLDKEWAWVKELLAEHPAELAEVEAARAARLAELRAEVEAKVAA	18.3
R8N (designed binder) MTLQELLNEEALRRAEAEAFRYALELLAEKFPEQKEYLLDLAEEIESQIRSLSGVDVEDVRKFLDKEWAWVKELLAEHPAELAEVEAARAARLAELRAEVEAKVAA	0.539
L26Q (designed binder) MTLQELLREEALRRAEAEAFRYALEQLAEKFPEQKEYLLDLAEEIESQIRSLSGVDVEDVRKFLDKEWAWVKELLAEHPAELAEVEAARAARLAELRAEVEAKVAA	0.593
E101L (designed binder) MTLQELLREEALRRAEAEAFRYALELLAEKFPEQKEYLLDLAEEIESQIRSLSGVDVEDVRKFLDKEWAWVKELLAEHPAELAEVEAARAARLAELRAEVLAKVAA	0.593
E9N (designed binder) MTLQELLRNEALRRAEAEAFRYALELLAEKFPEQKEYLLDLAEEIESQIRSLSGVDVEDVRKFLDKEWAWVKELLAEHPAELAEVEAARAARLAELRAEVEAKVAA	0.593
K66V (designed binder) MTLQELLREEALRRAEAEAFRYALELLAEKFPEQKEYLLDLAEEIESQIRSLSGVDVEDVRKFLDVEWAWVKELLAEHPAELAEVEAARAARLAELRAEVEAKVAA	0.653
L74F (designed binder) MTLQELLREEALRRAEAEAFRYALELLAEKFPEQKEYLLDLAEEIESQIRSLSGVDVEDVRKFLDKEWAWVKEFLAEHPAELAEVEAARAARLAELRAEVEAKVAA	0.79
D40C (designed binder) MTLQELLREEALRRAEAEAFRYALELLAEKFPEQKEYLLCLAEEIESQIRSLSGVDVEDVRKFLDKEWAWVKELLAEHPAELAEVEAARAARLAELRAEVEAKVAA	0.79

Binder	apparent Kd (screen) [nM]
V71P (designed binder) MTLQELLREEALRRAEAEAFRYALELLAEKFPEQKEYLLDLAEEIESQIRSLSGVDVEDVRKFLDKEWAWPKELLAEHPAELAEVEAARAARLAELRAEVEAKVAA	12.5
A15S (designed binder) MTLQELLREEALRRSEAEAFRYALELLAEKFPEQKEYLLDLAEEIESQIRSLSGVDVEDVRKFLDKEWAWVKELLAEHPAELAEVEAARAARLAELRAEVEAKVAA	0.539
Q4T (designed binder) MTLTELLREEALRRAEAEAFRYALELLAEKFPEQKEYLLDLAEEIESQIRSLSGVDVEDVRKFLDKEWAWVKELLAEHPAELAEVEAARAARLAELRAEVEAKVAA	0.593
L82T (designed binder) MTLQELLREEALRRAEAEAFRYALELLAEKFPEQKEYLLDLAEEIESQIRSLSGVDVEDVRKFLDKEWAWVKELLAEHPAETAEVEAARAARLAELRAEVEAKVAA	0.653
F20N (designed binder) MTLQELLREEALRRAEAEANRYALELLAEKFPEQKEYLLDLAEEIESQIRSLSGVDVEDVRKFLDKEWAWVKELLAEHPAELAEVEAARAARLAELRAEVEAKVAA	0.446
K103I (designed binder) MTLQELLREEALRRAEAEAFRYALELLAEKFPEQKEYLLDLAEEIESQIRSLSGVDVEDVRKFLDKEWAWVKELLAEHPAELAEVEAARAARLAELRAEVEAIVAA	1.05
K30H (designed binder) MTLQELLREEALRRAEAEAFRYALELLAEHFPEQKEYLLDLAEEIESQIRSLSGVDVEDVRKFLDKEWAWVKELLAEHPAELAEVEAARAARLAELRAEVEAKVAA	0.49
E101Q (designed binder) MTLQELLREEALRRAEAEAFRYALELLAEKFPEQKEYLLDLAEEIESQIRSLSGVDVEDVRKFLDKEWAWVKELLAEHPAELAEVEAARAARLAELRAEVQAKVAA	0.718
E25P (designed binder) MTLQELLREEALRRAEAEAFRYALPLLAEKFPEQKEYLLDLAEEIESQIRSLSGVDVEDVRKFLDKEWAWVKELLAEHPAELAEVEAARAARLAELRAEVEAKVAA	2.25
A94S (designed binder) MTLQELLREEALRRAEAEAFRYALELLAEKFPEQKEYLLDLAEEIESQIRSLSGVDVEDVRKFLDKEWAWVKELLAEHPAELAEVEAARAARLSELRAEVEAKVAA	0.593
E5I (designed binder) MTLQILLREEALRRAEAEAFRYALELLAEKFPEQKEYLLDLAEEIESQIRSLSGVDVEDVRKFLDKEWAWVKELLAEHPAELAEVEAARAARLAELRAEVEAKVAA	0.49
L96Y (designed binder) MTLQELLREEALRRAEAEAFRYALELLAEKFPEQKEYLLDLAEEIESQIRSLSGVDVEDVRKFLDKEWAWVKELLAEHPAELAEVEAARAARLAEYRAEVEAKVAA	0.49
P32I (designed binder) MTLQELLREEALRRAEAEAFRYALELLAEKFIEQKEYLLDLAEEIESQIRSLSGVDVEDVRKFLDKEWAWVKELLAEHPAELAEVEAARAARLAELRAEVEAKVAA	0.49
K66P (designed binder) MTLQELLREEALRRAEAEAFRYALELLAEKFPEQKEYLLDLAEEIESQIRSLSGVDVEDVRKFLDPEWAWVKELLAEHPAELAEVEAARAARLAELRAEVEAKVAA	3.99
V85I (designed binder) MTLQELLREEALRRAEAEAFRYALELLAEKFPEQKEYLLDLAEEIESQIRSLSGVDVEDVRKFLDKEWAWVKELLAEHPAELAEIEAARAARLAELRAEVEAKVAA	0.593
P32G (designed binder) MTLQELLREEALRRAEAEAFRYALELLAEKFGEQKEYLLDLAEEIESQIRSLSGVDVEDVRKFLDKEWAWVKELLAEHPAELAEVEAARAARLAELRAEVEAKVAA	0.593
T2V (designed binder) MVLQELLREEALRRAEAEAFRYALELLAEKFPEQKEYLLDLAEEIESQIRSLSGVDVEDVRKFLDKEWAWVKELLAEHPAELAEVEAARAARLAELRAEVEAKVAA	0.593
